Results: paper PMC6179999

Legend:
P27467 [1] = assay: AUC; AUC-FDS; conditioned medium of L cells secreting GFP-Wnt3a co-cultured with HEK293 cells secreting mouse sFRP2
P27467 [2] = assay: AUC; AUC-FDS of GFP-Wnt3a in culture medium with serum from which afamin was immuno-depleted before the cultivation; peak areas normalised by the whole area
P27467 [3] = assay: AUC; AUC-FDS of GFP-Wnt3a in culture medium with mock-treated serum; peak areas normalised by the whole area

GFP-tagged mouse Wnt3a secreted from stably transformed mouse L cells
relative area of HMW complex peaks, with sFRP2 (P27467 [1]): relative area of HMG peaks was decreased from 46.4 ± 0.8% to 33.6 ± 2.9% by the addition of sFRP2
relative area of the HMW peaks, afamin pre-depleted serum (P27467 [2]): that of the HMW peaks was increased from 51.1 ± 4.8% to 69.6 ± 1.2%
relative area of the HMW peaks, mock-treated serum (P27467 [3]): that of the HMW peaks was increased from 51.1 ± 4.8% to 69.6 ± 1.2%
